Results taken from CN105524166A (ATTOBIO (SUZHOU) CO LTD, dated 2016).

What was measured:
His-HPV18E7融合蛋白 = target: T1, His-HPV18E7融合蛋白 (human papillomavirus type 18 (HPV18), UniProt P06788 1-105); assay: ELISA by the method of Beatty et al.: His-HPV18E7 coated at 8, 2, 0.5 and 0.125 μg/ml, MAB-F2 in two-fold dilutions from 8 μg/ml, mean of six K values
T1 construct: Recombinant His fusion protein coated on ELISA plates; also called HPV18E7重组蛋白; His-HPV18E7重组蛋白; not shown: His tag
T1 chain: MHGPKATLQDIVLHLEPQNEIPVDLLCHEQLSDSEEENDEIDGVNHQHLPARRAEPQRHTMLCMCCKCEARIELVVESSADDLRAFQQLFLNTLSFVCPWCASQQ

CaSki细胞表达的HPV16E7蛋白 = target: T2, CaSki细胞表达的HPV16E7蛋白 (human papillomavirus type 16 (HPV16), UniProt P03129 2-98); assay: immunocytochemistry on fixed, permeabilised CaSki cells
T2 construct: Endogenous, intracellular E7 of CaSki cells, tested in fixed, permeabilised cells (ICC); also called 表达HPV16E7的CaSki细胞; HPV16E7阳性细胞CaSki
T2 sequence: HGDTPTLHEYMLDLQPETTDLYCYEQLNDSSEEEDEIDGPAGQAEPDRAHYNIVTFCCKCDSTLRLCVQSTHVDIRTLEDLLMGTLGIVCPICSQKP

His-HPV16E7融合蛋白 = target: T3, His-HPV16E7融合蛋白 (human papillomavirus type 16 (HPV16), UniProt P03129 2-98); assay: indirect ELISA, coated His-HPV16E7
T3 construct: Recombinant His fusion protein coated on ELISA plates; also called HPV16E7重组蛋白; His-HPV16E7重组蛋白; not shown: His tag
T3 sequence: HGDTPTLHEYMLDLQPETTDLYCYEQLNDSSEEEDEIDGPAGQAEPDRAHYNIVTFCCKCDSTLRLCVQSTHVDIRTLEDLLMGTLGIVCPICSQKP

B1: HPV18E7单克隆抗体MAB-F2 (antibody, V domains shown)
VH: LVQSGGGSVKPGGSLKLSCAASGFTFNRYDMSWFRQSPEKRLEWVAEIRNDGSKTHYSDTVTGRFTISRDNAKNTLYLEMSSLRSEDTAMYYCTRDSYGTVFAYWGQGTLVTVSA
VL: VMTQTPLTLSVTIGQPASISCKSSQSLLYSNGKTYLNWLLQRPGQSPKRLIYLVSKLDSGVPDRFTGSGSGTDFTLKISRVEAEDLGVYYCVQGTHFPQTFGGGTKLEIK
notes: also called mAb MAB-F2; anti-HPV18E7单抗MAB-F2
With B1 the Kd (His-HPV18E7融合蛋白) was 2.67 nM, the binding result (CaSki细胞表达的HPV16E7蛋白) was “no binding (tested: MAB-F2 5μg/ml)” and the binding result (His-HPV16E7融合蛋白) was “no binding (tested: MAB-F2 1μg/ml; antigen coated at 2μg/ml)”.
